In the DeepSol protein solubility set:

Test: soluble on expression in E. coli; label from the status in PepcDB or PDB records

Soluble on expression in E. coli, not soluble:
MATESALIKVHVKSPSNKYDVEIAADASVSELKDKVLVFVPTANKEQVCIIYTGKILKDEETLTQHKIADGHTVHLVIRNQARPTPAPAAATPTASSAPSSNPTPSSQPNPTNNPFAAMGGMGSPADILNNPDAMRSVMDNPITQQLLGNPEFMRTIIQSNPQFQALIERNPEVGHILNDPNVMRQTMEMIRNPNMFQEMMRNHDQAIRNLQGIPGGEAALERLYNDVQEPLLNSATNSLSGNPFASLRGDQSSEPRVDRAGQENNEALPNPWASNANQATNNQSNNRSADFNSLLDSPGISSLMEQMMSNPSMQASMFSPEVINSIRQNMSNNPGLIDSIVGQIPSARDNPQISEGIRRSFPQMLNMMSDPSVMEAMRNPRVSEAFRQIQEGFSTLRREAPQLLNLFQAGAMGGGAFGSDANASSAGANSANGLADLFNSMNMGGGRPSSTAAPVNPEQTYASQLEQLQSMGFSDRARNVAALTATFGDLNAAVERLLNSP
MGSDKIHHHHHHMYYPYWQLGGTPWYQPPVQQQAPPYFQLPPLYTGPYSSPYQTSLVPYLTRPLRTPETPQDRTRTIMRDLMTAIDGEHRAIQCYQQMAQHAPTKKEQQQIEEIITDEQRHLRTFSALYQQITEKQHEPTTDQKISHNYEKALAFAVEEEQKTVDFYLEVADHAPNLQIREAFQRAAKDEQNHAVWFLYFLTKRLTSKL
MGSDKIHHHHHHMRYVILARNLDSKAGGISVYGRNLIKKLEAKGIDVIISPKEKFSYFKWLLFDVPIFILKTDADVYHAIGIIEGILLPFIKPRAKKYLTVHDLIPLKYKGRGFRKILERFLVRLGLFSARFYDKIFAVSHLTKLDVIRFGGIDENKIEVVYQPIDDKFLKTPTSGKRHKTFNIGYISRMEAYKRHELLIKLFMKYKNPNARLYLAGTGPLFKKIQKLAEEDKRIILLGFVPDDKIVEFYDMLDVYIHPSKYEGWGLPIVEATARKKPVIIFEDAEIPREVKYLCLSIDFNIINPLISNLKYLKKVGVIKNKAWRRIYENSICH
MGHHHHHHSHMAGPVKDREAFQRLNFLYQAAHCVLAQDPENQALARFYCYTERTIAKRLVLRRDPSVKRTLCRGCSSLLVPGLTCTQRQRRCRGQRWTVQTCLTCQRSQRFLNDPGHLLWGDRPEAQLGSQADSKPLQPLPNTAHSISDRLPEEKMQTQGSSNQ
MTNIWKKNYETAKEVEEFVKKAYELGDVTELELLRAKRERSIAEVKLKVSRSKYEASLKELSRLLAKEVRDVEGELSAGVAMKEVNIDTLPVVLSIKKKIEAIDRQIQLEKALAKPKLATGFVVEESEEGYYGLRGSLTLELPLFYRREGEILQNIAMKKALKRRLEAELLKVKSRLESVKIRLETLQKELEKLEREVIPRAREELALAIKSYKLKAITLLELSDVRRKYYELLINRAELLLDIHRTYSEFIEIGGWRR
METPMHDEEESDSLNTSHLSDVELDDLVTTKFVEEFKNLKIADDSLEVVRDVGSPLNQALSPIERRNSDEFLLEDHPSLVRPIKDIFQRDEAMLLKNRILDASDEILKTNFMWNMFERSKKWRNTSHSSEVSLLDSLFQMVDRRPVLLHISCSRLTENDISCMIRKSLLDVAAQPRQKTVFRVTIKTEMPLKQFLGQLAMLLSTSPTIKFECAPVTALMKNLDGSMRKFYTAEVENFAEAELGLLSMSHLSPMNASARFKFTMNEKPFVTVNVGYHSNIDQCRRQKTIVIEQTVDGTVPARRVTFGFPLVSRVEEYELDEGLPFIPLRNSTKVFDLSQHFGNVQALPKVLDLKNIVFK
MGSDKIHHHHHHMTPTAFNTGRVQVNKTIAELRSLGKDARERVPFSQLGQYQPLDRDSNQLMDRIRRLLIPELLPERTRRMAASPFAFFRGTAELMEADLRQQPNSTIETFVCGDAHIGNFGFYASPERRLLFDLNDFDEAGINPWEWDLKRLLVSVLLAAQANGIKEKKIKQFLPTVAASYRKSMKQMFTQTTLARFYPLNDVEKLIQASALTDADSQLLMTIINRASKRDSEQVVRKFTTLDSRGNLCFRENAPKTTHVTDDVTTHIATYFAAYRQTVRPDVNLLLSQYHLTDVVRHSVGVGSFGSRCYLVLLTSIDGSHLVLQIKEALPTRQQGSQTLAQLTVAQEQTEGQRIVDCQKILQSASDSFLGYFAGNQHSFYVRQFRDMKESIDLTQLDWGQLQTYANTCAWTLAIAHCQSPTAAMIRGYIGGGKQFDEQLAAFASAYAQQVQTDYESFVAYRLPTKQP
MSLTASIPINSNLIVHVGNNVRIDAFGLKARLTGDLNVVQDKQGLGLNGQINIPEGRFHAYGQDLIVRKGELLFSGPPDQPYLNIEAIRNPDATEDDVIAGVRVTGLADEPKAEIFSDPAMSQQAALSYLLRGQGLESDQSDSAAMTSMLIGLGVAQSGQIVGKIGETFGVSNLALDTQGVGDSSQVVVSGYVLPGLQVKYGVGIFDSIATLTLRYRLMPKLYLEAVSGVDQALDLLYQFEFEGHHHHHH
MGSDKIHHHHHHMEIGLIDIKGTLPCFENFGNLPTKIIHENNISKIKDLEMLIIPGGSIVESGSFTDEFKKQILDFDNYIVGICSGFQILSEKIDIGRKSPIPIIKEGLGLLNVEFSPLICTDLVKFNIENDNLFGKKNQLGHGFHCHTYGNIEITNNSTKIWTTSEIEKLNYKMVGKQNILSGVFKNKVYGTMVHNLLDNDFVVENFLKNMKIKDDEKQEIFKKNSILKEKLKDRSKISENFKKIESNDKKGIILLATGSESGKTFLSTSICSKLKGKTFVSKIGPDVRDIVPSLYLLREPMTKFSSIKLSDRGWSEPSEFLEFVKNSKFNNYIIEGVMGAFTGALNKKNYSGSEVSKILGFPVYIISSCSKTGIEGSFVECMAYHSLLKEMGVNVAGIVLNRVYNAELLEKVKKIANDLNIDLIGVNKLNVNVDNKRGLIPEVEIDYEEFCNATMKLDFEIDIPKINPEKINEDSKTFEEYLKIWSEKLININ
MKLSTAFLTFSAVFLYGSAQQLLYLNSFKGMRVNNDMYEWCNIYISAQSDDTSFLASVYIVTAKNSKSLLNIMQDNLQNTGEIQGYPVDPPAYLTTSLSDNEMKQLNGVIYLSSAGQRVDSTFHVYDIYQARKMNIIANGYSTFLFLNSNMQTKPSRSSIISDWNQIKGSSGLLYAGFPLDSKVNVYPIFSNPITIQNSEVLFPNVETFSLSLAAFYITTNNGFSFKIKPGYYNINGTNTTSVYSTTGFYMKPAGEDDSTIVVNIENDIRCSGTSGASVVGHFPTGGNVTVGFYNGMAKYEQSAPPEDYPSYNPWTIPFIGQHFKVSSTNGTAGQYYVQYFVNQRPPRQTTPPETTTKSAGAVKLFTSVVTLLMYWL
MSVRATVVKRTISGGKGKISEYCDGTKAVFHYQALFPIEKHEKGQPLSLEKDAFKSIDDTRKPWPHGYGKPLEIVFGKKFQLPVFEQCLKTMLVDEISQFDVECIDLVQYPFVSKKLRDLVKPCDGKHSHAHTTHMCAASIAQGTGYEELDELMKNPRPLRFVFHLLQVFEPDQYVHDSWQLDEDDKLKSVEALRQKGNELFVQKDYKEAIDAYRDALTRLDTLILREKPGEPEWVELDRKNIPLYANMSQCYLNIGDLHEAEETSSEVLKREETNEKALFRRAKARIAAWKLDEAEEDLKLLLRNHPAAASVVAREMKIVTERRAEKKADSRVTYSKMFQP
MGSDKIHHHHHHGEDEKKPEIVVDPAEKTIEYYIAGKVTEGTTALSGVEVKAGEVTATTDAEGAYKLTVDSKKMYTVTFSKEGYMSIDNATATIADNAANRSMVSLSVKLSKKAPEKEVKADAEEEVVVTDKGDSNISQAEAAVIIPPKAIETTTTVSVTPYEEPAAVTTTVTPGNNVETPVAIANIEVETAKEVTLAKPVTLAIINKASEHTTFENVEVYNQKTTTRAGENWNKVADAIYDSETNSYKFTLPAGASLSGKYSMRVKSSKTTGKERIGETNKEEKKSNEGNMTAIPEYKINFEATAGWEYTVSPEKALMNAGVDAADAQGMATTINSAIEAQEGTTGTYKVAHELIAGISGNHILYYLNQAKYCEKTYTFKISGGRTVTITLKFYTGMQITYTNVEASQHSGGKI
MGSDKIHHHHHHMLLKLLHYLRCPQCRSQLSLSEATVGDWVEQGQLLCTQCRRTYAITKGIAYLYVENEEWKQLAAEAAGWVQMAKDAGCYDQTGIDIDFRLPYVPIPPWIDIARAFDIVLNIVRPRPGAMVVDIGAGRGWAAKQFAIRGCHAVAVEINDDDQIGLGRSLALMQHANVQYDLLIASSQRLPLADESFDIVFASAALHHSSCLATLLSEAARVLRRGGKLIAIHEPCIADHVTPEQDAPNIAQETAYNIHESRPKLDDYRHALRHAGLQELALFNHELYGTSIEDMQQWAANHWLSLLTADQIAMLRRKRTPTLWRTIRILRSRLQQLPDTTLVPPQDWMDQYYRHVGGSLTIIAQKP

Soluble on expression in E. coli, soluble:
MVVQVQPVEVDVESLVTRVFLKAIDLLGGLHKLAEYRTLTWLPSLARAAFVIVYREEFLKTEEEIAELVGLTRQTVRNILRADPELALYKIQHIDELTKEEKKELRVHTAGGIAKLAYKKVKEGEEPKVFLEFCTMAAEALEVPWAYLLLKKIKGTHFPINSPEELKEKVKGVVIKGMPAEEVVEKIEYPVKNPADLLHKIKIHLKMMGVE
SATSTTIAKHIGNSNPLIDHHLGADPVALTYNGRVYIYMSSDDYEYNSNGTIKDNSFANLNRVFVISSADMVNWTDHGAIPVAGANGANGGRGIAKWAGASWAPSIAVKKINGKDKFFLYFANSGGGIGVLTADSPIGPWTDPIGKPLVTPSTPGMSGVVWLFDPAVFVDDDGTGYLYAGGGVPGVSNPTQGQWANPKTARVIKLGPDMTSVVGSASTIDAPFMFEDSGLHKYNGTYYYSYCINFGGTHPADKPPGEIGYMTSSSPMGPFTYRGHFLKNPGAFFGGGGNNHHAVFNFKNEWYVVYHAQTVSSALFGAGKGYRSPHINKLVHNADGSIQEVAANYAGVTQISNLNPYNRVEAETFAWNGRILTEKSTAPGGPVNNQHVTSIQNGDWIAVGNADFGAGGARSFKANVASTLGGKIEVRLDSADGKLVGTLNVPSTGGAQTWREIETAVSGATGVHKVFFVFTGTGTGNLFNFDYWQFTQR
MEGERMNAFPSTMMDEELNLWDFLERAAALFGRKEVVSRLHTGEVHRTTYAEVYQRARRLMGGLRALGVGVGDRVATLGFNHFRHLEAYFAVPGMGAVLHTANPRLSPKEIAYILNHAEDKVLLFDPNLLPLVEAIRGELKTVQHFVVMDEKAPEGYLAYEEALGEEADPVRVPERAACGMAYTTGTTGLPKGVVYSHRALVLHSLAASLVDGTALSEKDVVLPVVPMFHVNAWCLPYAATLVGAKQVLPGPRLDPASLVELFDGEGVTFTAGVPTVWLALADYLESTGHRLKTLRRLVVGGSAAPRSLIARFERMGVEVRQGYGLTETSPVVVQNFVKSHLESLSEEEKLTLKAKTGLPIPLVRLRVADEEGRPVPKDGKALGEVQLKGPWITGGYYGNEEATRSALTPDGFFRTGDIAVWDEEGYVEIKDRLKDLIKSGGEWISSVDLENALMGHPKVKEAAVVAIPHPKWQERPLAVVVPRGEKPTPEELNEHLLKAGFAKWQLPDAYVFAEEIPRTSAGKFLKRALREQYKNYYGGA
